Measurements: patent WO2010064456A1

Target: T1, rhNR10 (human) (UniProt Q8NI17)
T1 sequence (looked up): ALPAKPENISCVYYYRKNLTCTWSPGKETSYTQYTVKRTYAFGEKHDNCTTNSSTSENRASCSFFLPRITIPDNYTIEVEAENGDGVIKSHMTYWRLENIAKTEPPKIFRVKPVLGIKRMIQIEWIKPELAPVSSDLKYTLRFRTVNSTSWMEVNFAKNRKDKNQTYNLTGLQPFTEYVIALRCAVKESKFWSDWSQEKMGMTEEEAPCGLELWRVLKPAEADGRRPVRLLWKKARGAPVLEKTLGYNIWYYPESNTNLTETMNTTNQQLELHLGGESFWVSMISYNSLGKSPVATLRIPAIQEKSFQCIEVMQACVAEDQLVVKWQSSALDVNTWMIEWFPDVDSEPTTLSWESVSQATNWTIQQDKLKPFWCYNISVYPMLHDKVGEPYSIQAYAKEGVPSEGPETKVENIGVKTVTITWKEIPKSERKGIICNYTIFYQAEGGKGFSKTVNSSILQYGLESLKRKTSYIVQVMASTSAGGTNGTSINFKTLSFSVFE
Experiment: SPR (Biacore T100), antibody captured on Protein A, rhNR10 as analyte; reference H0L0 (H0-M58/L0)

fold affinity against H0L0: 2 fold
B1: H0L12 (H chain H0-M58, L chain L12) (antibody, V domains shown)
VH: QVQLVQSGAEVKKPGASVKVSCKASGYTFTGYIMNWVRQAPGQGLEWMGLINPYNGGTSYNQKFKGRVTITADESTSTAYMELSSLRSEDTAVYYCARDGYDDGPYTMDYWGQGTLVTVSS
VL: DIQMTQSPSSLSASVGDRVTITCQTSEDIYSFVAWYQQKPGKAPKLLIYNAQTEAQGVPSRFSGSGSGTDFTLTISSLQPEDFATYYCQHHYDSPLTFGGGTKVEIKR
